{"source": "paper PMC5795439", "key": {"[1]": {"assay": "flow cytometry, surface anti-HA, 293T", "settings": "glycan changed form; control: untreated, same construct"}, "[2]": {"assay": "virus release efficiency, p24 western blot, 293T", "settings": "glycan changed form; control: untreated, same construct"}, "[3]": {"assay": "anti-HA western blot of 293T lysates", "settings": "glycan lost"}, "[4]": {"assay": "flow cytometry, surface anti-HA, 293T"}, "[5]": {"assay": "virus release efficiency, p24 western blot, 293T"}, "[6]": {"assay": "flow cytometry, surface anti-tetherin, HeLa", "settings": "glycan changed form; control: untreated HeLa"}, "[7]": {"assay": "immunofluorescence microscopy, anti-tetherin, HeLa", "settings": "glycan changed form; control: untreated HeLa"}, "[8]": {"assay": "virus release efficiency, HeLa endogenous tetherin", "settings": "glycan changed form; control: untreated HeLa"}, "[9]": {"settings": "glycan lost, control: untreated WT tetherin"}, "[10]": {"settings": "glycan changed form, control: untreated, same construct"}, "[11]": {"settings": "glycan lost, control: wild type"}}}
{"molecule": "tetherin: kifunensine (N92A tetherin)", "values": [{"measurement": "localisation_or_trafficking", "setting": "[1]", "value": "decreases"}, {"measurement": "other: restriction of HIV-1 release", "setting": "[2]", "value": "no change"}]}
{"molecule": "tetherin: kifunensine (N65A tetherin)", "values": [{"measurement": "localisation_or_trafficking", "setting": "[1]", "value": "decreases"}, {"measurement": "other: restriction of HIV-1 release", "setting": "[2]", "value": "no change"}]}
{"molecule": "tetherin: tunicamycin (protein) parent chain: MASTSYDYCRVPMEDGDKRCKLLLGIGILVLLIIVILGVPLIIFTIKANSEACRDGLRAVMECRNVTHLLQQELTEAQKGFQDVEAQAATCNHTVMALMASLDAEKAQGQKKVEELEGEITTLNHKLQDASAEVERLRRENQVLSVRIADKKYYPSSQDSSSAAAPQLLIVLLGLSALLQ", "values": [{"measurement": "expression_or_secretion", "setting": "[3]; control: untreated WT tetherin", "value": "no change"}, {"measurement": "localisation_or_trafficking", "setting": "[4]; [9]", "value": "decreases"}, {"measurement": "other: restriction of HIV-1 release, fold_change", "setting": "[5]; [9]", "value": "decreases"}]}
{"molecule": "tetherin: kifunensine (WT tetherin) (protein) parent chain: MASTSYDYCRVPMEDGDKRCKLLLGIGILVLLIIVILGVPLIIFTIKANSEACRDGLRAVMECRNVTHLLQQELTEAQKGFQDVEAQAATCNHTVMALMASLDAEKAQGQKKVEELEGEITTLNHKLQDASAEVERLRRENQVLSVRIADKKYYPSSQDSSSAAAPQLLIVLLGLSALLQ", "values": [{"measurement": "localisation_or_trafficking", "setting": "[4]; [10]", "value": "decreases"}, {"measurement": "other: restriction of HIV-1 release", "setting": "[5]; [10]", "value": "no change"}]}
{"molecule": "tetherin: kifunensine (protein) parent chain: MASTSYDYCRVPMEDGDKRCKLLLGIGILVLLIIVILGVPLIIFTIKANSEACRDGLRAVMECRNVTHLLQQELTEAQKGFQDVEAQAATCNHTVMALMASLDAEKAQGQKKVEELEGEITTLNHKLQDASAEVERLRRENQVLSVRIADKKYYPSSQDSSSAAAPQLLIVLLGLSALLQ", "values": [{"measurement": "localisation_or_trafficking", "setting": "[6]", "value": "no change"}, {"measurement": "localisation_or_trafficking", "setting": "[7]", "value": "no change"}, {"measurement": "other: restriction of HIV-1 release", "setting": "[8]", "value": "no change"}]}
{"molecule": "tetherin: N65A (protein) parent chain: MASTSYDYCRVPMEDGDKRCKLLLGIGILVLLIIVILGVPLIIFTIKANSEACRDGLRAVMECRNVTHLLQQELTEAQKGFQDVEAQAATCNHTVMALMASLDAEKAQGQKKVEELEGEITTLNHKLQDASAEVERLRRENQVLSVRIADKKYYPSSQDSSSAAAPQLLIVLLGLSALLQ", "values": [{"measurement": "expression_or_secretion", "setting": "[3]; control: wild type", "value": "no change"}, {"measurement": "localisation_or_trafficking", "setting": "[4]; [11]", "value": "no change"}, {"measurement": "other: restriction of HIV-1 release", "setting": "[5]; [11]", "value": "no change"}]}
{"molecule": "tetherin: N92A (protein) parent chain: MASTSYDYCRVPMEDGDKRCKLLLGIGILVLLIIVILGVPLIIFTIKANSEACRDGLRAVMECRNVTHLLQQELTEAQKGFQDVEAQAATCNHTVMALMASLDAEKAQGQKKVEELEGEITTLNHKLQDASAEVERLRRENQVLSVRIADKKYYPSSQDSSSAAAPQLLIVLLGLSALLQ", "values": [{"measurement": "expression_or_secretion", "setting": "[3]; control: wild type", "value": "no change"}, {"measurement": "localisation_or_trafficking", "setting": "[4]; [11]", "value": "no change"}, {"measurement": "other: restriction of HIV-1 release", "setting": "[5]; [11]", "value": "no change"}]}
{"molecule": "tetherin: N65,92A (protein) parent chain: MASTSYDYCRVPMEDGDKRCKLLLGIGILVLLIIVILGVPLIIFTIKANSEACRDGLRAVMECRNVTHLLQQELTEAQKGFQDVEAQAATCNHTVMALMASLDAEKAQGQKKVEELEGEITTLNHKLQDASAEVERLRRENQVLSVRIADKKYYPSSQDSSSAAAPQLLIVLLGLSALLQ", "values": [{"measurement": "expression_or_secretion", "setting": "[3]; control: wild type", "value": "increases"}, {"measurement": "localisation_or_trafficking", "setting": "[4]; [11]", "value": "decreases"}, {"measurement": "other: restriction of HIV-1 release", "setting": "[5]; [11]", "value": "abolishes, there was a small (25%) decrease in VRE at 0.8 μg of input DNA"}]}
